According to US20110262445A1 (CEPHALON AUSTRALIA, published 2011):
One block for each binder: values may come before it.

Columns and labels:
[1] = target: T1, human IL-23 (human, UniProt P29460 23-328; Q9NPF7 20-189); experiment: SPR, IgG; LOD estimated 1 × 10^-5 s^-1
T1 construct: Recombinant (Ebioscience); HIS-tagged in flow cytometry, biotinylated in some assays; also called hIL-23; rhIL-23
T1 sequence 1: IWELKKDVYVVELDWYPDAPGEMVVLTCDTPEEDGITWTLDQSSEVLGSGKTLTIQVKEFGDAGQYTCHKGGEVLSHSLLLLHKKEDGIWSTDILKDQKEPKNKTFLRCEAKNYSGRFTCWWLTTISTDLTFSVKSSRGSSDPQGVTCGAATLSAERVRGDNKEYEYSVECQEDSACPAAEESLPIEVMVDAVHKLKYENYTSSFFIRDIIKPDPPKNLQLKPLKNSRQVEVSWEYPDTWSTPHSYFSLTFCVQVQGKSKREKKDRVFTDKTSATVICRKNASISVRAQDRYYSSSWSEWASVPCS
T1 sequence 2: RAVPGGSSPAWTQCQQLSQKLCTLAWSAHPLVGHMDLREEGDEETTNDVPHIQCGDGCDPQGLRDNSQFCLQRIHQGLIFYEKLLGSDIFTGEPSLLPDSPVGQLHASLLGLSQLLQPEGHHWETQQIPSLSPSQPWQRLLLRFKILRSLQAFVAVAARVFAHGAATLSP

[2] = target: T2, human IL-12 (human, UniProt P29460 23-328; P29459 23-219); experiment: SPR, IgG
T2 construct: Recombinant (Peprotech); FLAG-tagged IL-12 in the flow cytometry assays, biotinylated in the IL-12Rβ2 assay; also called hIL-12
T2 sequence 1: T1 sequence 1
T2 sequence 2: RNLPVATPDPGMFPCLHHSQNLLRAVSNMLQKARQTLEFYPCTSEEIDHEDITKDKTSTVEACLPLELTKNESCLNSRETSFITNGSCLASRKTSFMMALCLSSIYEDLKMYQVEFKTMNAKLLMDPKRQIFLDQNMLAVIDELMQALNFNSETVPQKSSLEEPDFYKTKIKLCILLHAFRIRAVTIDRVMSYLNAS
Experimental: (§1) CU-A6 was converted to Antibody 183, CP-A6 was converted to Antibody 184 and AW-F2 was converted to Antibody 207 by addition of a human heavy chain Fc region (SEQ ID NO: 8) and a constant kappa light chain region (SEQ ID NO: 9). IgG molecules were expressed by co-transfecting the heavy and light chain construct for each antibody into HEK 293E cultures. The expressed IgGs were purified by affinity chromatography and gel exclusion and the resulting monomeric molecules were tested for IL-12 and IL-23 binding by SPR (TABLE 6). All three IgG variants retained binding activity against both analytes with a visible improvement in kd compared to the parental wild-type IgG. Based on this, it is reasonable to expect that scFv variants described in TABLE 4 could be converted to the IgG format and retain improved binding characteristics against IL-12 and IL-23.
(§2) Using a SPR 3000, Protein A was immobilized onto FC1 and FC2 (or alternatively FC3 and FC4) of a CM5 research grade sensor chip using amine coupling, giving approximately […] RU. FC1 was used a blank throughout the experiments. The experiments were run in HBS-P buffer (SPR). At a flow rate of 20 μl/min, 20 μl of 5 μg/mL of antibody was passed over FC2. IL-12, IL-23 or IL-12p40 (Peprotech) were passed over the surface of FC1 and FC2 at concentrations ranging from 66 nM to 2 nM. Regeneration of the surface was performed using 10 mM Glycine, pH 1.0. The sensorgram data from FC2 was subtracted from FC1 and a buffer only control. The curves were fitted using a 1:1 Langmuir equation to generate the kd, ka and KD values. All curves were fitted with a χ² of less then 2.0 where possible.

[3] = target: T1, human IL-23; experiment: SPR, IgG
Experimental: as §1, §2

[4] = target: T1, human IL-23; experiment: SPR, purified scFv captured via FLAG; LOD estimated 1 × 10^-5 s^-1
Experimental: (§3) A number of the scFv variants presented in TABLE 4 were selected for full characterization of binding kinetics, encompassing a broad range of mutation profiles and binding affinities. Large-scale protein expressions were carried out for each scFv. The expressed scFvs were purified as monomeric proteins and tested for binding against IL-12 and IL-23 by SPR (TABLE 5).
(§4) Purified scFvs were subjected to full kinetic characterization using a BIAcore T100 biosensor (GE Healthcare). Approximately 10,000 RU of the proprietry FLAG-specific capture molecule was immobilized on a CM5 Series S Sensor chip, using standard amine coupling chemistry in flow cells (FC) 1 and FC2 (or alternatively FC3 and FC4) of the BIAcore T100 Biosensor. The running buffer used was HBS-EP+ (BIAcore) and interactions measured at 30° C. or 35° C. to promote differentiation of scFvs with very similiar kd values. Peak purified FLAG-tagged scFvs (prepared as described in the previous paragraph) were diluted to 10 nM in running buffer, and captured on FC2 at a flow rate of 10 μl/min in order to capture 50 RU of scFv (typically 60 sec was sufficient to capture this level of tagged scFv). After an appropriate stabilization period, the target, IL-12 or IL-23, were passed over FC1 and FC2 at a flow rate of 60 μl/min at concentrations ranging from 81 nM to 0.13 nM (using a five-fold dilution of IL-12) and 81 nM to 1 nM (using a three-fold dilution of IL-23). The contact time for association was 180 sec and dissociation measured for 10 mins for the highest concentration and 300 sec for all other concentrations in the series. The sensorgram data from FC2 was subtracted from FC1 and a buffer only control. The curves were fitted using a 1:1 Langmuir equation to generate the kₐ, kd and KD values.

[5] = target: T1, human IL-23; experiment: SPR screen, crude scFv captured via FLAG
Method in brief: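 Crude periplasmic FLAG-tagged scFvs were captured on an anti-FLAG surface (approx. 100 or 50 RU) in HBS-EP+ at 25 °C. IL-23 was injected for 120 s at 30 μl/min, with 200 s dissociation. Referenced sensorgrams were fitted to a 1:1 Langmuir model for ka, kd and KD.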

[6] = target: T2, human IL-12; experiment: SPR, purified scFv
[7] = target: T2, human IL-12; experiment: SPR, purified scFv captured via FLAG
Experimental: as §3, §4

[8] = target: T1, human IL-23; experiment: SPR, purified scFv captured via FLAG
Experimental: as §3, §4

[9] = target: T2, human IL-12; experiment: ELISA, SPR
[10] = target: T1, human IL-23; experiment: ELISA, SPR

koff [1]: < 1e-05 s⁻¹
Kd [2]: 65 pM
koff [2]: 0.00027 s⁻¹
kon [2]: 4.1e+06 M⁻¹ s⁻¹
Kd [3]: ≤ 2.7 pM
kon [3]: 400000 M⁻¹ s⁻¹
B1: Antibody 183 (antibody, human IgG1, kappa, V domains shown)
VH: QVQLVQSGAEVKKPGASVKVSCKASGYTLTDYYLHWVRQAPGQGLEWMGWIDPENGDTEYAPKFQGRVTMTTDTSTSTAYMELRSLRSDDTAVYYCNANKELRYFDVWGQGAMVTVSS
VL: EIVMTQSPATLSVSPGERATLSCRASQSISINLHWYQQKPGQAPRLLIYFASQSISGIPARFFGSGSGTEFTLTISSLQSEDFAVYYCQQSNSFPLTFGGGTKVEIKR
notes: also called CU-A6 as IgG

koff [4]: < 1e-05 s⁻¹
koff [5]: 0.00025 s⁻¹
fold affinity improvement compared to parental scFv-80 [6]: 5 fold
Kd [7]: 46 pM
koff [7]: 0.0001 s⁻¹
kon [7]: 2.2e+06 M⁻¹ s⁻¹
kon [8]: 350000 M⁻¹ s⁻¹
B2: scFv AW-F2 (scFv)
scFv: QVQLVQSGAEVKKPGASVKVSCKASGYTFTDYYLHWVRQAPGQGLEWMGWIDPENGDTESAPKFQGRVTMTTDTSTSTAYMELRSLRSDDTAVYYCNANKELRYFDVWGQGTMVTVSSGGGGSGGGGSGGGGSEIVMTQSPATLSVSPGERATLSCRASQSISINLHWYQQKPGQAPRLLIYFASQSISGIPARFSGSGSGTEFTLTISSLQSEDFAVYYCQQSNSFPLTFGGGTKVEIKR
notes: scFv-80 variant: VH Y59S; not shown: proprietary C-terminal FLAG tag

binding result [9]: binds
binding result [10]: binds
B3: Antibody 50 (antibody, human IgG1, kappa, V domains shown)
VH: EVQLQQSGADLVRSGASIKLSCTASGFNIKDYYLHWVKQRPEQGLEWIGWIDPENGDTEYAPKFQGKATMTADTSSNTAYLQLSSLTSEDTAVYYCNANKELRYFDVWGAGTTVTVSS
VL: DIVLTQSPATLSVTPGDSVSLSCRASQSISINLHWYQQKSHESPRLLIKFASQSISGIPSRFSGYGSGTDFTLSINSVETEDFGRYFCQQSNSFPLTFGAGTKLELKR
notes: Optimized chimeric antibody (W94F, M34L, C95N)
